In data set [1] the test system is recombinant human SLPI.
In data set [2] the test system is SLPI present in human saliva.
Sequence of SLPI present in human saliva (chain, as listed by the source): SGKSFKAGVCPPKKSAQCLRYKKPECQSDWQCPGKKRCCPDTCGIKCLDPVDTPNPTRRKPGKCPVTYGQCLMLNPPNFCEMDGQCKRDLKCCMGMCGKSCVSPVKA

Sequence of tryptase (chain, as listed by the source): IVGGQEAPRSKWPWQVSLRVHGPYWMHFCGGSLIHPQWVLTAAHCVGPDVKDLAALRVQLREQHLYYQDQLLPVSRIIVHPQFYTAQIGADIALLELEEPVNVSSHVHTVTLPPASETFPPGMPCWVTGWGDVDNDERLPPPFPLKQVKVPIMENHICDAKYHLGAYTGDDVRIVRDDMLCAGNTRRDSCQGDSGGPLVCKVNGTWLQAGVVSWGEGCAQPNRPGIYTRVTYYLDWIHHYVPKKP

In the case of tryptase, in data set [1], the “cleavage of rSLPI, LC/MS (1 ug rSLPI, 50 ng protease, 5 hours)” value is listed as “did not result in the formation of the second peak” and the “cleavage of the reduced form of rSLPI” value is “Reduction of the rSLPI samples in the presence of the proteases did result in cleavage of the SLPI protein”. In addition, the “cleavage of SLPI in human saliva, Western analysis” value in data set [2] is “The larger SLPI cleavage product was not observed when the saliva samples were incubated with cathepsin G, tryptase and proteinase 3”.

For the origin of these results see patent US20070166779.
